Values of other authors, collected in patent US20180369330A1, “METHODS AND COMPOSITIONS USING INTEGRIN-BASED THERAPEUTICS” (La Jolla Institute for Allergy and Immunology, priority 2016, published 2018).

Assays:
[1] = biological target: T1, αVβ3 (Homo sapiens, UniProt P05106+P06756); settings: patients with glioblastoma
T1 construct: host or cells: patients with glioblastoma (cited trials)

[2] = patients, clinical trials or clinical use

T1 sequence (P06756 31-889 limits assumed): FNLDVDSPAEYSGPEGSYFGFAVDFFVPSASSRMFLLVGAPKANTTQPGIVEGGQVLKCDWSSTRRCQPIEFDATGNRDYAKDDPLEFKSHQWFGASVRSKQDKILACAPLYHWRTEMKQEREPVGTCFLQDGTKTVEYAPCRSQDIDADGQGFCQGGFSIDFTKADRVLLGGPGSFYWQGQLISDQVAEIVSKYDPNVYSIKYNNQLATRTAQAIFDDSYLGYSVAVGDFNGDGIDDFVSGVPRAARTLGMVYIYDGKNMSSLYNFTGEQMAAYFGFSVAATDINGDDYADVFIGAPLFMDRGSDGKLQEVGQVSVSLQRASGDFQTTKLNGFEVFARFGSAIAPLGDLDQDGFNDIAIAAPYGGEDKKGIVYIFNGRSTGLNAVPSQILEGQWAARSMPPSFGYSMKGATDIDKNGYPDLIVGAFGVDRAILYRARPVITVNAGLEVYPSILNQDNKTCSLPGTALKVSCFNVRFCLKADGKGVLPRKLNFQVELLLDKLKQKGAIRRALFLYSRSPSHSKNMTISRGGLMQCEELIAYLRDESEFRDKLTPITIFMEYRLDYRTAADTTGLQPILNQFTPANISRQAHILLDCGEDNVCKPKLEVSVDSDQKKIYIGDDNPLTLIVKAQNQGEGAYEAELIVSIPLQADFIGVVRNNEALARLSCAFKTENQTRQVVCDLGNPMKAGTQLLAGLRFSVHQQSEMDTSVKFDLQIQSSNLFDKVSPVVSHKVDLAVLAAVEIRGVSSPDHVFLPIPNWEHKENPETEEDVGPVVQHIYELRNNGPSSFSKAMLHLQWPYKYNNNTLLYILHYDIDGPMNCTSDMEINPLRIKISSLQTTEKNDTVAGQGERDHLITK
T1 sequence (P06756 891-1048 limits assumed): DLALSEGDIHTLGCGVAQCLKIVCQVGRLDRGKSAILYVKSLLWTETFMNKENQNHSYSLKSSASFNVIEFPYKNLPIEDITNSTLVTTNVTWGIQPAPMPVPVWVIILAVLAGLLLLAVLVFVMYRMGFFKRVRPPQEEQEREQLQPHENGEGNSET
T1 sequence (P05106 27-788): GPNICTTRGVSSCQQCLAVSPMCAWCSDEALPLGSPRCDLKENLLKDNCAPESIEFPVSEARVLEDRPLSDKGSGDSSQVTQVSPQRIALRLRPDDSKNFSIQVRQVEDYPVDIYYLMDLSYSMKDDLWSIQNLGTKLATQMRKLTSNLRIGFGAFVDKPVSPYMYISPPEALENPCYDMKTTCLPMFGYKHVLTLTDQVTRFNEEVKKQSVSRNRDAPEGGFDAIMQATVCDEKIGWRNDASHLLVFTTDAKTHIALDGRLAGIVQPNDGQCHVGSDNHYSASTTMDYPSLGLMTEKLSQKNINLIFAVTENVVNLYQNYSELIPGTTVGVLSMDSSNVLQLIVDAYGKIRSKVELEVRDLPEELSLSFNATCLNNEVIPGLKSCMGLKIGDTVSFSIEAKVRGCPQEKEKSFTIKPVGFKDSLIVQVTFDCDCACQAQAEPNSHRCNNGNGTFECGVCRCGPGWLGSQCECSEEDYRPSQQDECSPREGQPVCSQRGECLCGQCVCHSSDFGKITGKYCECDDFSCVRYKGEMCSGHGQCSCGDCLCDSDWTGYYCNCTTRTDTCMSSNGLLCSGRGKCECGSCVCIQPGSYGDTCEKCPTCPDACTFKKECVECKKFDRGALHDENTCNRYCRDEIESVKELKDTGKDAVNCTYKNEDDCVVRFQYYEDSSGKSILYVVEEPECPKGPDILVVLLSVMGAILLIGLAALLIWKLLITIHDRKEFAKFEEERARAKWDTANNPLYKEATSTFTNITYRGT

Row | efficacy in limiting tumor angiogenesis and progression [1] | Molecule | progressive multifocal leukoencephalopathy [2]
1 | has not shown efficacy | CC(C)[C@H]1C(=O)N[C@@H](CCCN=C(N)N)C(=O)NCC(=O)N[C@@H](CC(=O)O)C(=O)N[C@H](Cc2ccccc2)C(=O)N1C [Cilengitide] | –
2 | – | Natalizumab: antibody targeting lymphocyte α4β1 and α4β7 integrins | rare but serious complication
3 | – | vedolizumab: antibody to a combinatorial epitope in α4β7 | has not been observed
